The text below walks through data of US20220098315A1 (Novartis, published 2022).

Experiment [1] deals with recombinant human CD40 (human) (UniProt P25942). The experiment can be described thus: SPR (Biacore T100), antibody captured on Protein A, CD40 antigen as analyte, 25 C, 1:1 model.
The target of the next experiment is human CD40 on cells (human, UniProt P25942 21-277). The experiment can be described thus: cell-based or functional assay.
human CD40 on cells, sequence (P25942 21-277 limits assumed): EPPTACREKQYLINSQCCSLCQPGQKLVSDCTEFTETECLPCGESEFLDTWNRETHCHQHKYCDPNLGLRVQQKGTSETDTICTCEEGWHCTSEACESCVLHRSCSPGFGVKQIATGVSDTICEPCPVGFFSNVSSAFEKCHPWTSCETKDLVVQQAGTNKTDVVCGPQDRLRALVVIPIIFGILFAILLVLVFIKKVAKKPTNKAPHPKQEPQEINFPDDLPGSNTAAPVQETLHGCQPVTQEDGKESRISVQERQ

recombinant human CD40 (human), sequence (P25942 21-193 limits assumed): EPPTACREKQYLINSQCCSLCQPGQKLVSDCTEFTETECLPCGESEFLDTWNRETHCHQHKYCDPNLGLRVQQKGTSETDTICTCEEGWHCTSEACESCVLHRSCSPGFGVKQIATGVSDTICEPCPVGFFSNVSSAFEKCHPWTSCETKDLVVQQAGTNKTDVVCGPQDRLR

Turning to HCD122 (antibody), in experiment [1], the Kd (usually the free concentration of one partner at which half of the binding sites on the other are occupied at equilibrium, for simple one-to-one binding) was found to be 0.467 nM; the koff (commonly the first-order rate constant of dissociation) worked out at 0.000126 s⁻¹; the kon (usually the rate constant with which the complex forms) is 284000 M⁻¹ s⁻¹.

B1: CFZ533 (antibody, human IgG1, kappa, N297A, V domains shown)
VH: QVQLVESGGGVVQPGRSLRLSCAASGFTFSSYGMHWVRQAPGKGLEWVAVISYEESNRYHADSVKGRFTISRDNSKITLYLQMNSLRTEDTAVYYCARDGGIAAPGPDYWGQGTLVTVSS
VL: DIVMTQSPLSLTVTPGEPASISCRSSQSLLYSNGYNYLDWYLQKPGQSPQVLISLGSNRASGVPDRFSGSGSGTDFTLKISRVEAEDVGVYYCMQARQTPFTFGPGTKVDIRR
Turning to B1, the “IC50, rCD154-induced proliferation of human PBMCs” value in the experiment with human CD40 on cells came to 0.12 nM.
